Data on 1 molecule can be found in article PMC10403730, “PABPN1 aggregation is driven by Ala expansion and poly(A)-RNA binding, leading to CFIm25 sequestration that impairs alternative polyadenylation”.

For the data set, the target named is T1, EGFP-PABPN1-10A-ΔCT (Homo sapiens, UniProt Q86U42 1-254).
T1 sequence: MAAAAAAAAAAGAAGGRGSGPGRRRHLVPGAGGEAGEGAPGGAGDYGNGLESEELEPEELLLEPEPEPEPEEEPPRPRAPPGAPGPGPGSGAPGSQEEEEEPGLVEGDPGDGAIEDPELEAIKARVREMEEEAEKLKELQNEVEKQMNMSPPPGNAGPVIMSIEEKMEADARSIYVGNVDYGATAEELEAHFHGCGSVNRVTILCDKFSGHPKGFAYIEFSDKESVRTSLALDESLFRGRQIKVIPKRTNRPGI
The data set can be described thus: EMSA; 2 nM dA50, 0-5 uM protein; 50 mM Tris-HCl, 150 mM NaCl, 2 mM MgCl2, pH 7.5, 30 min at room temperature; 6% native gel. Particulars: protein: recombinant; tags: N-terminal EGFP, C-terminal His; label: 5'-Cy5; single-stranded. A general note: In EMSA bound probe runs differently from free probe, usually more slowly.

Consider AAAAAAAAAAAAAAAAAAAAAAAAAAAAAAAAAAAAAAAAAAAAAAAAAA (ssDNA) [Cy5-dA50], for which the binding result is listed as “binds”.
